Experimental data published in paper PMC12216677, “Structural dynamics of IDR interactions in human SFPQ and implications for liquid–liquid phase separation” (Acta Crystallographica Section D: Structural Biology, 2025).

T1: full-length SFPQ (splicing factor proline- and glutamine-rich) (Homo sapiens), P23246
T1 chain: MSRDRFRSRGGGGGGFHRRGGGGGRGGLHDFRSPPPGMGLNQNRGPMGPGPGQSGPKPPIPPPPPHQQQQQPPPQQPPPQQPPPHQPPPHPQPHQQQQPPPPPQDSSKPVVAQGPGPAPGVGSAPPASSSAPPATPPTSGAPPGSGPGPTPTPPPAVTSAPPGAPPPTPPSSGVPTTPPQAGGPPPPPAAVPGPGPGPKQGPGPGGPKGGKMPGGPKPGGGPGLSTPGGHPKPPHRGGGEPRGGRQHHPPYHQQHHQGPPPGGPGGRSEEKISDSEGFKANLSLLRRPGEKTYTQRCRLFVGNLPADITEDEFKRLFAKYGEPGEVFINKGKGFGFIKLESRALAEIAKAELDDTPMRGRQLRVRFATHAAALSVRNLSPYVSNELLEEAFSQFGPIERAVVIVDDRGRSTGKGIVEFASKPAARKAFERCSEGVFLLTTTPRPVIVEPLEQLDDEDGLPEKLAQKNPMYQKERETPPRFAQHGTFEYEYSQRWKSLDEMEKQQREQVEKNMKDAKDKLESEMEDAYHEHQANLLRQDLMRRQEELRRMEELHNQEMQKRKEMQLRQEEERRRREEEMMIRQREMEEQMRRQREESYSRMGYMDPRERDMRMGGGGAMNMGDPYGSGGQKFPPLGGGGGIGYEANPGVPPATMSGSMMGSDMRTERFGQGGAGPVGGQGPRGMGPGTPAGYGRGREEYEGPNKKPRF


Experiments:
[1] = target: T1, full-length SFPQ (splicing factor …); assay: SANS; static cell, 1:20 hSFPQ:dSFPQ at 0.63 mg/ml, no match-out, 150 mM KCl, 1.5% glycerol, 20 mM HEPES, 1 mM DTT pH 7.4 in H2O; settings: remark: other sources report otherwise
[2] = target: T1, full-length SFPQ (splicing factor …); assay: SEC-SAXS; inline SEC-SAXS co-flow, Superdex 200 5/150, 500 mM KNO3, 20 mM HEPES pH 7.4, 5% glycerol, 1 mM DTT, 25 °C; injected at 4.2 mg/ml (full length) or 5 mg/ml (1–598); settings: remark: other sources report otherwise
[3] = target: the molecule itself; assay: SEC-SAXS; inline SEC-SAXS co-flow, Superdex 200 5/150, low salt: 150 mM KCl, 20 mM HEPES pH 7.4, 5% glycerol, 5 mM MgCl2, 1 mM DTT, 25 °C; injected at 4.91 mg/ml
[4] = target: the molecule itself; assay: SEC-SAXS; inline SEC-SAXS co-flow, Superdex 200 5/150, 500 mM KNO3, 20 mM HEPES pH 7.4, 5% glycerol, 1 mM DTT, 25 °C; injected at 4.2 mg/ml (full length) or 5 mg/ml (1–598)

Binder	stoichiometry N [1]	stoichiometry N [2]	stoichiometry N [3]	stoichiometry N [4]
full-length SFPQ (splicing factor proline- and glutamine-rich), P23246 1-707 (natural protein) MSRDRFRSRGGGGGGFHRRGGGGGRGGLHDFRSPPPGMGLNQNRGPMGPGPGQSGPKPPIPPPPPHQQQQQPPPQQPPPQQPPPHQPPPHPQPHQQQQPPPPPQDSSKPVVAQGPGPAPGVGSAPPASSSAPPATPPTSGAPPGSGPGPTPTPPPAVTSAPPGAPPPTPPSSGVPTTPPQAGGPPPPPAAVPGPGPGPKQGPGPGGPKGGKMPGGPKPGGGPGLSTPGGHPKPPHRGGGEPRGGRQHHPPYHQQHHQGPPPGGPGGRSEEKISDSEGFKANLSLLRRPGEKTYTQRCRLFVGNLPADITEDEFKRLFAKYGEPGEVFINKGKGFGFIKLESRALAEIAKAELDDTPMRGRQLRVRFATHAAALSVRNLSPYVSNELLEEAFSQFGPIERAVVIVDDRGRSTGKGIVEFASKPAARKAFERCSEGVFLLTTTPRPVIVEPLEQLDDEDGLPEKLAQKNPMYQKERETPPRFAQHGTFEYEYSQRWKSLDEMEKQQREQVEKNMKDAKDKLESEMEDAYHEHQANLLRQDLMRRQEELRRMEELHNQEMQKRKEMQLRQEEERRRREEEMMIRQREMEEQMRRQREESYSRMGYMDPRERDMRMGGGGAMNMGDPYGSGGQKFPPLGGGGGIGYEANPGVPPATMSGSMMGSDMRTERFGQGGAGPVGGQGPRGMGPGTPAGYGRGREEYEGPNKKPRF	2	2		
SFPQ residues 1–598 (domain or fragment, Homo sapiens, UniProt P23246 1-598, looked up, The GFP tag was removed with TEV protease; that the His tag left with it is surmised from the second nickel column) MSRDRFRSRGGGGGGFHRRGGGGGRGGLHDFRSPPPGMGLNQNRGPMGPGPGQSGPKPPIPPPPPHQQQQQPPPQQPPPQQPPPHQPPPHPQPHQQQQPPPPPQDSSKPVVAQGPGPAPGVGSAPPASSSAPPATPPTSGAPPGSGPGPTPTPPPAVTSAPPGAPPPTPPSSGVPTTPPQAGGPPPPPAAVPGPGPGPKQGPGPGGPKGGKMPGGPKPGGGPGLSTPGGHPKPPHRGGGEPRGGRQHHPPYHQQHHQGPPPGGPGGRSEEKISDSEGFKANLSLLRRPGEKTYTQRCRLFVGNLPADITEDEFKRLFAKYGEPGEVFINKGKGFGFIKLESRALAEIAKAELDDTPMRGRQLRVRFATHAAALSVRNLSPYVSNELLEEAFSQFGPIERAVVIVDDRGRSTGKGIVEFASKPAARKAFERCSEGVFLLTTTPRPVIVEPLEQLDDEDGLPEKLAQKNPMYQKERETPPRFAQHGTFEYEYSQRWKSLDEMEKQQREQVEKNMKDAKDKLESEMEDAYHEHQANLLRQDLMRRQEELRRMEELHNQEMQKRKEMQLRQEEERRRREEEMMIRQREMEEQMRRQREESYS			2	2
